As a reminder, the IC50 is the concentration that gives 50% inhibition.

The values that follow come from patent US20170260272A1 (Novartis, published 2017).

First the molecules themselves.
B1: MOR22029 (antibody, human IgG1, lambda, L234A L235A)
heavy: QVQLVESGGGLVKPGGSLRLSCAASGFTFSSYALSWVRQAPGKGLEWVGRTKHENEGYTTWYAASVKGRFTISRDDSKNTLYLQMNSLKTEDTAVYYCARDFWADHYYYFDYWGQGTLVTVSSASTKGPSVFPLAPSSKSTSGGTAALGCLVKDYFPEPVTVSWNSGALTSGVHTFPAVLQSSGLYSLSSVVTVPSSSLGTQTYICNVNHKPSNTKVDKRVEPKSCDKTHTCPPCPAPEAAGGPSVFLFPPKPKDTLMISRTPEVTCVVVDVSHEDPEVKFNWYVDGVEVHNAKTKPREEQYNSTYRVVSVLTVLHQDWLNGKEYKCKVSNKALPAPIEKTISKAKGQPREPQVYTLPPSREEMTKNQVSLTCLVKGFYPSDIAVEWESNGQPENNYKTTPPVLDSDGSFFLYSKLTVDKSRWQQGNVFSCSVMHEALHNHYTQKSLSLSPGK
light: QSALTQPASVSGSPGQSITISCTGTSSDVGYINYVNWYQQHPGKAPKLMIYEVSNRPSGVSNRFSGSKSGNTASLTISGLQAEDEADYYCASWDWYDNVVFGGGTKLTVLGQPKAAPSVTLFPPSSEELQANKATLVCLISDFYPGAVTVAWKADSSPVKAGVETTTPSKQSNNKYAASSYLSLTPEQWKSHRSYSCQVTHEGSTVEKTVAPTECS
notes: Human IgG1f LALA; also called MOR022029; MOR20229
B2: MOR22030 (antibody, human IgG1, lambda, L234A L235A)
heavy: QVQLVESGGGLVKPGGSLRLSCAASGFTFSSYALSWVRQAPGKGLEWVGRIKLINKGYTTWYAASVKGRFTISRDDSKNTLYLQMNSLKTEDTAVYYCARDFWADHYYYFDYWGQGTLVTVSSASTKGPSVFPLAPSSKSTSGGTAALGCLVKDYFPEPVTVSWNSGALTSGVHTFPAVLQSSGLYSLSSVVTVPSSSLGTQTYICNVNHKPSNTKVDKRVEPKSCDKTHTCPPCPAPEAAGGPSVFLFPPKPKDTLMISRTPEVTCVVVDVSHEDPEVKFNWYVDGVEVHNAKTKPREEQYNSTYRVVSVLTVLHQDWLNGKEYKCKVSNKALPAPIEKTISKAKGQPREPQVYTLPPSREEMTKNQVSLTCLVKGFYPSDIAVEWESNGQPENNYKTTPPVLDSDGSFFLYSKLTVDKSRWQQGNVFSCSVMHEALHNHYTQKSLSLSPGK
light: B1 light
notes: Human IgG1f LALA; also called MOR022030; MOR20230
B3: MOR22028 (antibody, human IgG1, lambda, L234A L235A, V domains shown)
VH: QVQLLESGGGLVQPGGSLRLSCAASGFTFSDYALHWVRQAPGKGLEWVSVISYAGGFKFYADSVKGRFTISRDNSKNTLYLQMNSLRAEDTAVYYCARSPGLTSYHDSWGQGTLVTVSS
VL: QSVLTQPPSVSGAPGQRVTISCSGSSSNIGSNYVSWYQQLPGTAPKLLIHSSSHRPSGVPDRFSGSKSGTSASLAITGLQAEDEADYYCQSWDYESERVVFGGGTKLTVLG
notes: Human IgG1f LALA; also called MOR022028; MOR20228
B4: MOR022025 (antibody, human IgG1, lambda, L234A L235A, V domains shown)
VH: B3 VH with A54Q, K58I, F59Y
VL: B3 VL with S52T
notes: Human IgG1f LALA; also called MOR20225; MOR020225
B5: MOR22031 (antibody, human IgG1, kappa, L234A L235A, V domains shown)
VH: QVQLVQSGAEVKKPGSSVKVSCKASGGTFSDYAISWVRQAPGQGLEWMGGIMPISGAPYYAQKFQGRVTITADESTSTAYMELSSLRSEDTAVYYCARDSSTSYYYYFDYWGQGTLVTVSS
VL: DIQMTQSPSSLSASVGDRVTITCRASQDISSWLAWYQQKPGKAPKLLIYQASNLQSGVPSRFSGSGSGTDFTLTISSLQPEDFATYYCQQIDHTPFTFGQGTKVEIKR
notes: Human IgG1f LALA; also called MOR022031; MOR20231
B6: MOR22034 (antibody, human IgG1, kappa, L234A L235A, V domains shown)
VH: B5 VH with M52V, S55V, A57T, P58A, Y59N
VL: B5 VL with I91M, D92W, H93Q, T94F, F96I
notes: Human IgG1f LALA; also called MOR022034; MOR20234
B7: MOR021453 (antibody, human IgG1, lambda, L234A L235A)
heavy: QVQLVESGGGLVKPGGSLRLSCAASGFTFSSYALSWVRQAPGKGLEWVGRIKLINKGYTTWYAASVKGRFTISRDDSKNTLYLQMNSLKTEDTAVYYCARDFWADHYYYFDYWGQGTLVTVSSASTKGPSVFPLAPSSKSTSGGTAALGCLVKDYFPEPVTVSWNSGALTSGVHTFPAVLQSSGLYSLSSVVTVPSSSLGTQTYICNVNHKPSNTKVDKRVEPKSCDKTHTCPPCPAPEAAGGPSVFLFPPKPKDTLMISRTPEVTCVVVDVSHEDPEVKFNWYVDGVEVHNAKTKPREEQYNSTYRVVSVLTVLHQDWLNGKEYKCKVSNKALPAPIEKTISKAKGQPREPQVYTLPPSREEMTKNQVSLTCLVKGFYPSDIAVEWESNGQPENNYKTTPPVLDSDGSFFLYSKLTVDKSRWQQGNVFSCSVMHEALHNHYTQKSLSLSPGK
light: B1 light with Q1D, S2I
notes: also called MOR21453
B8: MOR021452 (antibody, human IgG1, lambda, L234A L235A)
heavy: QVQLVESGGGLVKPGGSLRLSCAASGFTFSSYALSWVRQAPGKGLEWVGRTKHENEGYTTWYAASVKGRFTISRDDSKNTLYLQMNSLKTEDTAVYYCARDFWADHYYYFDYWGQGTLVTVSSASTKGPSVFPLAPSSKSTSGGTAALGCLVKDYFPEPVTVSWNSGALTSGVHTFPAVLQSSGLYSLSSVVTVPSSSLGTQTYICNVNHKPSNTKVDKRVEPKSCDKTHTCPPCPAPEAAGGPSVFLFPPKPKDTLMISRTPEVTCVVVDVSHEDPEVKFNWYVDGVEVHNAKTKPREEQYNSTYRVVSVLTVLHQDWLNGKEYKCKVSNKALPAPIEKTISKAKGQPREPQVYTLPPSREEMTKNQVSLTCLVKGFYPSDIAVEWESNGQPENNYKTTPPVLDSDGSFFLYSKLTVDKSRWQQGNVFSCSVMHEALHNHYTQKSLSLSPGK
light: B1 light with Q1D, S2I
notes: also called MOR21452
B9: MOR021460 (antibody, human IgG1, lambda, L234A L235A, V domains shown)
VH: B3 VH with A54Q, K58I, F59Y
VL: B3 VL with Q1D, S2I, S52N
notes: also called MOR21460
B10: MOR021468 (antibody, human IgG1, lambda, L234A L235A, V domains shown)
VH: B3 VH
VL: B3 VL with Q1D, S2I, S52N
notes: also called MOR21468
B11: MOR020152 (antibody, human IgG1, lambda, L234A L235A, V domains shown)
VH: QVQLVQSGAEVKKPGSSVKVSCKASGGTFSSYAISWVRQAPGQGLEWMGRIIPIFGGANYAQKFQGRVTITADESTSTAYMELSSLRSEDTAVYYCARDPLYRSDYYYHWFDFWGQGTLVTVSS
VL: DIALTQPASVSGSPGQSITISCTGTSSDVGNFNYVSWYQQHPGKAPKLMIYGVNNRPSGVSNRFSGSKSGNTASLTISGLQAEDEADYYCAAYGWALDEVVFGGGTKLTVLG
notes: also called MOR20152

Numbering of substitutions follows the chain as printed.

The first assay addresses T1, human LOX-1 (full-length, on cells) (human, UniProt P78380 1-273). As to the kind of experiment: cell-based or functional assay.
With B1, the “Inhibition of ROS generation (IC50, nM)” value came to 2.2 nM.

In the case of B2, the “Inhibition of ROS generation (IC50, nM)” value is 2.5 nM.

Take B3: the “Inhibition of ROS generation (IC50, nM)” value was determined as 3.5 nM.

As to B4, the “Inhibition of ROS generation (IC50, nM)” value came to 4.6 nM.

On to B5, for which the “Inhibition of ROS generation (IC50, nM)” value is 1.9 nM.

On to B6, for which the “Inhibition of ROS generation (IC50, nM)” value is 1.6 nM.

For another assay, the target named is T2, APP-Avi-soluble human LOX-1(61-273) (human, UniProt P78380 61-273). As to the kind of experiment: competition ELISA: AGE-BSA binding to plate-bound biotinylated human sLOX-1. The procedure:
Purified APP-Avi-soluble human soluble LOX-1(61-273) protein prepared as described in Example 1 was biotinylated as described in Example 5. NeutrAvidin 384 well plates were coated with 5 μg/ml biotinylated LOX-1 diluted in bicarbonate buffer (Thermo Scientific). After blocking with PBS/2% BSA/0.1% Tween20/0.1% TritonX-100, purified Fabs or IgGs diluted in PBS/2% BSA/0.1% Tween20/0.1% TritonX-100 were added. Subsequently AGE-BSA ligand (R&D Systems, #BT4127) diluted in PBS/2% BSA/0.1% Tween20/0.1% TritonX-100 was allowed to bind to coated LOX-1. Streptavidin-HRP (R&D Systems) diluted 1:200 in PBS/2% BSA/0.1% Tween20/0.1% TritonX-100 was added followed by addition of TMB substrate (Thermo Scientific). After 10 minutes 1M H₂SO₄ was added and absorbance was determined at 450 nm. Assay performance was affected by the type of BSA used for blocking and diluent solutions. For optimal assay performance, BSA from Sigma (catalog #A4503) was used.
In general terms: An ELISA detects its analyte on a solid surface through an enzyme-linked reagent.
B7: the IC50 was 1.6 nM.

As to B8, the IC50 worked out at 2.2 nM.

With B9, the IC50 is 2.1 nM.

Turning to B10, the IC50 came out at 2.4 nM.

The next assay addresses T2, APP-Avi-soluble human LOX-1(61-273). As to the kind of experiment: competition ELISA: oxLDL binding to plate-bound biotinylated human sLOX-1. The procedure: NeutrAvidin 384 well plates were coated with 2.5 μg/ml biotinylated LOX-1 diluted in PBS. After blocking with 25% Block Ace (AbD Serotec, Cat#BUF029) in PBS, purified Fabs or IgGs diluted in PBS/1% BSA were added. Subsequently OxLDL (copper-sulfate oxidized LDL, Kalen Biomedical #770202) or MDA-LDL (Academy Biomedical, #20P-UMD-L102) ligand diluted in PBS/1% BSA were allowed to bind to coated LOX-1. Secondary antibody (HRP conjugated sheep anti ApoB IgG; The Binding Site) diluted 1:1,000 in PBS/1% BSA was added followed by addition of TMB substrate (Thermo Scientific). After 10 minutes 1M H2SO4 was added and absorbance was determined at 450 nm. During early screenings, Fab fragments were also tested in this oxLDL binding assay using Fab-containing crude E. coli lysates.
The ability of LOX-1 antibodies to inhibit oxLDL binding to LOX-1 protein was determined using the method described in Example 4. In addition to “high binding OxLDL” from Kalen Biomedical (catalog number 770212-7), which is generated by copper sulfate mediated oxidation of LDL, two other forms of modified LDL were tested in this assay: malondialdehyde modified LDL (Academy Bio-Medical Co. catalog number 20P-MD-L105) and hypochlorite modified LDL. Hypochlorite modified LDL was prepared according to the following procedure. Human LDL (Kalen Biomedical catalog number 770200-4) was diluted with PBS to a final concentration of 0.25 mg/mL. Sodium hypochlorite (NaOCI, JT Baker catalog number 9416-01) was then added to 0.1 mM final concentration. The solution was incubated at room temperate for 4 hours, then quenched by adding L-methionine to a final concentration of reaction by adding 5 μl of 100 mM Mehionine per 200 μl total volume.
For B1, the IC50 is 4 nM.

Take B7: the IC50 was found to be 2.6 nM.

In turn, B2 had an IC50 of 6 nM.

Molecule B8 came in with an IC50 of 3.2 nM.

B11 yielded an IC50 of 5 nM.

Turning to B9, the IC50 turned out to be 4 nM.

B3: the half-maximal inhibitory concentration (IC50) was 9 nM.

Molecule B10 gave an IC50 of 4.8 nM.

In turn, B4 displayed an IC50 of 11 nM.

In the case of B5, the half-maximal inhibitory concentration (IC50) was 4 nM.

The molecule B6 had an IC50 of 10 nM.

A further assay deals with T3, APP-Avi-soluble cynomolgus monkey LOX-1(61-273) (cynomolgus monkey).
T3 construct: Non-biotinylated as titrated antigen in SET, biotinylated for capture on the plate; also called cyno sLOX-1; cynomolgus monkey soluble LOX-1
T3 sequence (chain, as listed by the source limits assumed): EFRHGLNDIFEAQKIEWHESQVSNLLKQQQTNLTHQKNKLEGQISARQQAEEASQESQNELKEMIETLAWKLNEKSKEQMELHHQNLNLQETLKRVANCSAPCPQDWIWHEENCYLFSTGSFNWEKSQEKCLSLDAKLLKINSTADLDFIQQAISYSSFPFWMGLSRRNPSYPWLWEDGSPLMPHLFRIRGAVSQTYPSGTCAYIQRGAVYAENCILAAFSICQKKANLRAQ
As to the kind of experiment: SET, IgG vs soluble cynomolgus LOX-1. On the procedure:
(§1) Affinity determination for anti-LOX-1 IgGs using Solution Equilibrium Titration (SET) was basically performed as described in the literature (Friguet et al., 1985 J Immunol Methods 77: 305-319). The assays were performed in a 96-well polypropylene plate (Thermo Scientific, Catalog no. AB-1127) using a constant concentration of LOX-1 antibody mixed with different concentrations of non-biotinylated human or cynomolgus monkey LOX-1 protein and incubated at 22° C. for 14 hours with constant shaking (300 rpm).
(§2) On a pre-blocked MSD plate (Meso Scale Discovery, catalog no. L21SA) biotinylated human or cynomolgus monkey soluble LOX-1 protein was immobilized and washed afterwards. The equilibrium binding reactions were then applied to the MSD plate with immobilized LOX-1 and incubated for 30 min. The unbound material was removed by washing the plate, and the captured antibody was detected by adding Sulfo-tagged goat anti-human IgG (Meso Scale Discovery, catalog no. R3AJ-1). After incubation and washing 1×MSD read buffer T(Meso Scale Discovery, catalog no. R92TC-2) was added and the plate was developed using a Sector Imager 6000 (Meso Scale Discovery). The data were transferred to Excel for analysis and plotted using GraphPad Prism v5. The KD values were determined by fitting the data to the following equation: […]
Turning to B1, the Kd worked out at 0.007 nM.

B7 returned a Kd of 0.007 nM.

In turn, B2 showed a Kd of 0.007 nM.

For B8, the Kd is 0.007 nM.

Molecule B9 gave a Kd of 0.0007 nM.

Molecule B3 registered a Kd of 0.0005 nM.

Take B10: the Kd turned out to be 0.0005 nM.

Regarding B4, the Kd came to 0.0007 nM.

The molecule B5 returned a Kd of 0.004 nM.

As for B6, the Kd worked out at 0.005 nM.

The target of the next assay is T1, human LOX-1 (full-length, on cells). As to the kind of experiment: flow cytometry: DiI-oxLDL binding to human LOX-1 transfected HEK293 cells. The procedure:
The huLOX-1/HEK293 cells were resuspended at 1×10⁶ cells/mL and seeded 50 μL per well into a 96-well V-bottom plate (5×10⁴ cells per well). LOX-1 or irrelevant control antibodies in assay medium (DMEM+10% FBS) were then added to the cells. Typical final antibody concentrations ranged from 0.006 μg/mL to 20 μg/mL. The cells were incubated at 37° C. for 1 hour, then washed twice with warm HBSS. Dil-oxLDL (human dil-labeled “High Oxidized” LDL, Kalen Biomedical, catalog number 770262-9; Dil is 1,1′-dioctadecyl-3,3,3′,3′-tetramethylindocarbocyanine perchlorate) in 50 ul assay medium was then added to a final concentration 30 to 100 μg/mL. The cells were then incubated at 37° C. for 2 hours, and then washed twice with FACS buffer (2% FBS in PBS). Cells were then analyzed for intensity of Di-I fluorescence by flow cytometry, as depicted in FIGS. 2A-2B and Table 3.
On the technique in general: Flow cytometry measures light scatter and fluorescence of single cells or particles in a stream.
In turn, B1 had an IC50 of 0.4 nM.

For the molecule B2, the IC50 amounted to 0.5 nM.

In turn, B3 yielded an IC50 of 0.7 nM.

Molecule B4 came in with an IC50 of 1 nM.

B5 displayed an IC50 of 0.8 nM.

As for B6, the IC50 was determined as 0.6 nM.

For a further assay, the target named is T2, APP-Avi-soluble human LOX-1(61-273). As to the kind of experiment: SET, IgG vs soluble human LOX-1. The procedure:
as §1, §2
On to B7, for which the Kd was determined as 0.004 nM.

On to B8, for which the Kd amounted to 0.01 nM.

Turning to B9, the Kd worked out at 0.0003 nM.

Turning to B10, the Kd amounted to 0.0006 nM.

The next assay shares this target. As to the kind of experiment: SET, IgG vs soluble human LOX-1. This is another data set of the same source.
In turn, B1 displayed a Kd of 0.01 nM.

Turning to B7, the Kd turned out to be 0.004 nM.

Molecule B2 came in with a Kd of 0.004 nM.

B8 displayed a Kd of 0.0075 nM.

With B11, the Kd was 0.0014 nM.

On to B9, for which the Kd was 0.0003 nM.

With B3, the Kd is 0.0006 nM.

As for B10, the Kd turned out to be 0.00065 nM.

B4 displayed a Kd of 0.0003 nM.

B5 had a Kd of 0.003 nM.

The molecule B6 showed a Kd of 0.005 nM.
